Data reported in US7067268.
No end group written: not given here.

B1: Bovine 19P2 ligand (1-31) (peptide)
peptide: SRAHQHSMEIRTPDINPAWYAGRGIRPVGRF-NH2
B2: Human 19P2 ligand (12-31) (peptide)
peptide: TPDINPAWYASRGIRPVGRF-NH2
B3: Rat 19P2 ligand (1-31) (peptide)
peptide: SRAHQHSMETRTPDINPAWYTGRGIRPVGRF-NH2
B4: Human 19P2 ligand (1-31) (peptide)
peptide: SRTHRHSMEIRTPDINPAWYASRGIRPVGRX
modifications: C-terminal amide

What was measured:
[1] = target: P2L-2Ca; assay: competitive EIA: unlabeled antigen varied against HRP-labeled 19P2 ligand (17-31) on P2L-2C
[2] = target: P2L-3Ta; assay: competitive EIA against HRP-labeled 19P2 ligand (12-25); sentence prints 'P2L-1Ta' but stands in the P2L-3Ta passage and cites FIG. 7(b)
[3] = target: P2L-1Ta; assay: competitive EIA: unlabeled antigen varied against HRP-labeled 19P2 ligand (12-25) on P2L-1Ta
[4] = target: P2L-1Ta; assay: competitive EIA on P2L-1Ta; FIG. 7(a)
[5] = target: P2L-3Ta; assay: competitive EIA against HRP-labeled 19P2 ligand (12-25); 'higher' as printed, though 25 nM against 4 nM points to lower
[6] = target: P2L-2Ca; assay: competitive EIA on P2L-2C; ratio of the antigen concentrations giving (B/B0)=0.5
[7] = target: these antibodies (P2L-1Ta, P2L-3Ta, P2L-2Ta and P2L-4Ta); assay: competitive EIA against HRP-labeled 19P2 ligand (12-25); P2L-1Ta, P2L-3Ta, P2L-2Ta, P2L-4Ta (FIG. 9)
[8] = target: P2L-3Ta; assay: competitive EIA: unlabeled antigen varied against HRP-labeled 19P2 ligand (12-25) on P2L-3Ta
[9] = target: P2L-1Ca; assay: competitive EIA: unlabeled antigen varied against HRP-labeled 19P2 ligand (17-31) on P2L-1C

Binder	IC50 [1] [nM]	IC50 [2] [nM]	fold of the reactivity against human 19P2 ligand (1-31) [2] [fold]	IC50 [3] [nM]	fold of the reactivity against human 19P2 ligand (1-31) [4] [fold]	fold of the reactivity against human 19P2 ligand (1-31) [5] [fold]	fold of the reactivity against bovine 19P2 ligand (1-31) [6] [fold]	fold of the reactivity against rat 19P2 ligand (1-31) [6] [fold]	IC50 [7] [nM]	IC50 [8] [nM]	antigen concentration detected, (B/B0)=0.9 [3] [nM]	IC50 [9] [nM]
B1	50	–	–	–	–	–	–	–	–	–	–	–
B2	–	7	0.5	4	–	–	–	–	–	–	–	–
B3	200	25	–	1	4	6	–	–	–	–	–	–
B4	1.5	–	–	4	–	–	33	130	3 to 50	4	0.1	3
